Measurements published in the supplement of paper PMC10567573.

B1: INTS3 (parent)
chain: FHPIKETVVEEPVDITPYLDQLDE
B2: KCNAB2 (parent)
chain: SSIIHEIDSILGNKPYSKKDYRS

Variants of: B1
Assay: protein stability index of a GFP-peptide fusion (GPS, HEK-293T) (PSI 1-6); higher = more stable
Conditions: c terminus: a fixed tail appended
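Note: lentivirally expressed fusions sorted by FACS into six bins by GFP to DsRed ratio, PSI derived from sequencing read proportions per bin multiplied by bin number.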

| Variant | protein stability index |
| --- | --- |
| FHPIKETVVEEPVDITPYLDQLVE [D23V] | 2.3 |
| FHPIKETVVEEPVDITPYLDQLTE [D23T] | 3.08 |
| FHPIKETVVEEPVDITPYLDQLQE [D23Q] | 3.02 |
| FHPIKETVVEEPVDITPYLDQLLE [D23L] | 2.21 |
| FHPIKETVVEEPVDITPYLDQLKE [D23K] | 2.39 |
| FHPIKETVVEEPVDITPYLDQLSE [D23S] | 2.68 |
| FHPIKETVVEEPVDITPYLDQLRE [D23R] | 2.63 |
| FHPIKETVVEEPVDITPYLDQLME [D23M] | 2.22 |
| FHPIKETVVEEPVDITPYLDQLWE [D23W] | 1.8 |
| FHPIKETVVEEPVDITPYLDQLNE [D23N] | 2.8 |
| FHPIKETVVEEPVDITPYLDQLYE [D23Y] | 2.18 |
| FHPIKETVVEEPVDITPYLDQLPE [D23P] | 3.02 |
| FHPIKETVVEEPVDITPYLDQLDN [E24N] | 3.17 |
| FHPIKETVVEEPVDITPYLDQLDY [E24Y] | 2.47 |
| FHPIKETVVEEPVDITPYLDQLDD [E24D] | 3.75 |
| FHPIKETVVEEPVDITPYLDQLDQ [E24Q] | 2.7 |

| Variant | protein stability index |
| --- | --- |
| FHPIKETVVEEPVDITPYLDQLDK [E24K] | 2.42 |
| FHPIKETVVEEPVDITPYLDQLDV [E24V] | 2.99 |
| FHPIKETVVEEPVDITPYLDQLDP [E24P] | 2.63 |
| FHPIKETVVEEPVDITPYLDQLDF [E24F] | 1.93 |
| FHPIKETVVEEPVDITPYLDQLDL [E24L] | 2.85 |
| FHPIKETVVEEPVDITPYLDQLDR [E24R] | 2.33 |
| FHPIKETVVEEPVDITPYLDQLDW [E24W] | 1.84 |
| FHPIKETVVEEPVDITPYLDQLDC [E24C] | 2.77 |
| FHPIKETVVEEPVDITPYLDQLDI [E24I] | 2.44 |
| FHPIKETVVEEPVDITPYLDQLDH [E24H] | 2.66 |
| FHPIKETVVEEPVDITPYLDQLDS [E24S] | 2.9 |
| FHPIKETVVEEPVDITPYLDQLDT [E24T] | 3.09 |
| FHPIKETVVEEPVDITPYLDQLDG [E24G] | 2.73 |
| FHPIKETVVEEPVDITPYLDQLDA [E24A] | 2.58 |
| FHPIKETVVEEPVDITPYLDQLDM [E24M] | 2.83 |

Variants of: B2
Assay: as above
Conditions: c terminus: native

| Variant | protein stability index |
| --- | --- |
| SSNIHEIDSILGNKPYSKKDYRS [I3N] | 4.2 |
| SSMIHEIDSILGNKPYSKKDYRS [I3M] | 3.17 |
| SSGIHEIDSILGNKPYSKKDYRS [I3G] | 4.46 |
| SSWIHEIDSILGNKPYSKKDYRS [I3W] | 1.72 |
| SSYIHEIDSILGNKPYSKKDYRS [I3Y] | 3.17 |
| SSDIHEIDSILGNKPYSKKDYRS [I3D] | 4.67 |
| SSCIHEIDSILGNKPYSKKDYRS [I3C] | 3.85 |
| SSRIHEIDSILGNKPYSKKDYRS [I3R] | 4.09 |
| SSQIHEIDSILGNKPYSKKDYRS [I3Q] | 2.53 |
| SSEIHEIDSILGNKPYSKKDYRS [I3E] | 4.16 |
| SSFIHEIDSILGNKPYSKKDYRS [I3F] | 2.83 |
| SSHIHEIDSILGNKPYSKKDYRS [I3H] | 4 |
| SSLIHEIDSILGNKPYSKKDYRS [I3L] | 2.9 |
| SSSIHEIDSILGNKPYSKKDYRS [I3S] | 4.63 |
| SSAIHEIDSILGNKPYSKKDYRS [I3A] | 3.94 |
| SSVIHEIDSILGNKPYSKKDYRS [I3V] | 3.61 |
| SSKIHEIDSILGNKPYSKKDYRS [I3K] | 2.78 |
| SSPIHEIDSILGNKPYSKKDYRS [I3P] | 3.96 |
| SSTIHEIDSILGNKPYSKKDYRS [I3T] | 4.58 |
| SSIIMEIDSILGNKPYSKKDYRS [H5M] | 1.76 |
| SSIIPEIDSILGNKPYSKKDYRS [H5P] | 3.09 |
| SSIILEIDSILGNKPYSKKDYRS [H5L] | 2.21 |

| Variant | protein stability index |
| --- | --- |
| SSIIGEIDSILGNKPYSKKDYRS [H5G] | 3.07 |
| SSIISEIDSILGNKPYSKKDYRS [H5S] | 2.98 |
| SSIIWEIDSILGNKPYSKKDYRS [H5W] | 2.2 |
| SSIIFEIDSILGNKPYSKKDYRS [H5F] | 2.21 |
| SSIIKEIDSILGNKPYSKKDYRS [H5K] | 3.83 |
| SSIIVEIDSILGNKPYSKKDYRS [H5V] | 2.38 |
| SSIICEIDSILGNKPYSKKDYRS [H5C] | 2.42 |
| SSIIQEIDSILGNKPYSKKDYRS [H5Q] | 3.02 |
| SSIIDEIDSILGNKPYSKKDYRS [H5D] | 3.7 |
| SSIIIEIDSILGNKPYSKKDYRS [H5I] | 1.48 |
| SSIIAEIDSILGNKPYSKKDYRS [H5A] | 3.83 |
| SSIIEEIDSILGNKPYSKKDYRS [H5E] | 2.7 |
| SSIINEIDSILGNKPYSKKDYRS [H5N] | 3.44 |
| SSIIREIDSILGNKPYSKKDYRS [H5R] | 3.64 |
| SSIIYEIDSILGNKPYSKKDYRS [H5Y] | 2.05 |
| SSIITEIDSILGNKPYSKKDYRS [H5T] | 3.6 |
| SSIIHEIDSALGNKPYSKKDYRS [I10A] | 4.13 |
| STIIHEIDSILGNKPYSKKDYRS [S2T] | 3.75 |
| SEIIHEIDSILGNKPYSKKDYRS [S2E] | 4.02 |
| SDIIHEIDSILGNKPYSKKDYRS [S2D] | 3.81 |
| SKIIHEIDSILGNKPYSKKDYRS [S2K] | 1.66 |
| SVIIHEIDSILGNKPYSKKDYRS [S2V] | 1.89 |

| Variant | protein stability index |
| --- | --- |
| SQIIHEIDSILGNKPYSKKDYRS [S2Q] | 3.07 |
| SFIIHEIDSILGNKPYSKKDYRS [S2F] | 2.4 |
| SNIIHEIDSILGNKPYSKKDYRS [S2N] | 3.43 |
| SGIIHEIDSILGNKPYSKKDYRS [S2G] | 3.2 |
| SMIIHEIDSILGNKPYSKKDYRS [S2M] | 1.98 |
| SAIIHEIDSILGNKPYSKKDYRS [S2A] | 2.89 |
| SCIIHEIDSILGNKPYSKKDYRS [S2C] | 2.22 |
| SWIIHEIDSILGNKPYSKKDYRS [S2W] | 2.66 |
| SRIIHEIDSILGNKPYSKKDYRS [S2R] | 3.13 |
| SIIIHEIDSILGNKPYSKKDYRS [S2I] | 1.72 |
| SLIIHEIDSILGNKPYSKKDYRS [S2L] | 1.77 |
| SPIIHEIDSILGNKPYSKKDYRS [S2P] | 3.68 |
| SHIIHEIDSILGNKPYSKKDYRS [S2H] | 2.31 |
| SYIIHEIDSILGNKPYSKKDYRS [S2Y] | 2.24 |
| SSIFHEIDSILGNKPYSKKDYRS [I4F] | 1.29 |
| SSIWHEIDSILGNKPYSKKDYRS [I4W] | 1.4 |
| SSIEHEIDSILGNKPYSKKDYRS [I4E] | 3.9 |
| SSIRHEIDSILGNKPYSKKDYRS [I4R] | 2.94 |
| SSINHEIDSILGNKPYSKKDYRS [I4N] | 4.51 |
| SSIKHEIDSILGNKPYSKKDYRS [I4K] | 2.81 |
| SSILHEIDSILGNKPYSKKDYRS [I4L] | 2.56 |
